Measurements published in paper PMC1796551, “Breast cancer metastasis suppressor 1 (BRMS1) inhibits osteopontin transcription by abrogating NF-κB activation”.

B1: OPN/NF-kB (dsDNA)
DNA 1: GAATTTCATGGGGAAGTCCAAATTCTAAG
DNA 2: CTTAGAATTTGGACTTCCCCATGAAATTC
B2: Mut OPN/NF-kB (dsDNA)
DNA 1: GAATTTCATGCGGACTTCGAAATTCTAAG
DNA 2: CTTAGAATTTCGAAGTCCGCATGAAATTC

Experiments:
Conditions in all cases: protein: commercial; chain copies: 2; label: biotin; only one strand given
[1] = molecular target: T1, p65 (RelA) (Homo sapiens, UniProt Q04206 1-551); test: EMSA; supershift with anti-p65 (lane 6); 10 mM Tris, 50 mM KCl, 1 mM DTT, 5 mM MgCl2, 1 ug poly(dI-dC), 20 fmol biotinylated probe, 100 ng p65 or 66 ng p50, room temperature 30 min; pH not stated
T1 sequence (Q04206 whole entry): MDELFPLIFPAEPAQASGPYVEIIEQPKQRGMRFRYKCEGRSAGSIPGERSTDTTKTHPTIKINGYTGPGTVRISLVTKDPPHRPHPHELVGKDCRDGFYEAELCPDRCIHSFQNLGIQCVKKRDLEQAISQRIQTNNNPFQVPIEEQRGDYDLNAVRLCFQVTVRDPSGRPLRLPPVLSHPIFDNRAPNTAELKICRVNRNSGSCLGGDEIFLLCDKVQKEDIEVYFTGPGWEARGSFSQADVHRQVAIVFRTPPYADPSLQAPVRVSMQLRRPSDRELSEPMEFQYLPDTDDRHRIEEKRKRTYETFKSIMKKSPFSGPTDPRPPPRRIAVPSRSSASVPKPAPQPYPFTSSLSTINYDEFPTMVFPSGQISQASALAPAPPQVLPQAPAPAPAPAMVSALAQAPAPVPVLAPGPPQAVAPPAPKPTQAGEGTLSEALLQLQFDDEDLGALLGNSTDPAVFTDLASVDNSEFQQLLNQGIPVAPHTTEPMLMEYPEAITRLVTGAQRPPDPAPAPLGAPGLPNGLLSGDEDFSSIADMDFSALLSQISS

[2] = molecular target: p50 (Homo sapiens, UniProt P19838 1-433); test: EMSA; 10 mM Tris, 50 mM KCl, 1 mM DTT, 5 mM MgCl2, 1 ug poly(dI-dC), 20 fmol biotinylated probe, 100 ng p65 or 66 ng p50, room temperature 30 min; pH not stated
p50, sequence (P19838 1-433): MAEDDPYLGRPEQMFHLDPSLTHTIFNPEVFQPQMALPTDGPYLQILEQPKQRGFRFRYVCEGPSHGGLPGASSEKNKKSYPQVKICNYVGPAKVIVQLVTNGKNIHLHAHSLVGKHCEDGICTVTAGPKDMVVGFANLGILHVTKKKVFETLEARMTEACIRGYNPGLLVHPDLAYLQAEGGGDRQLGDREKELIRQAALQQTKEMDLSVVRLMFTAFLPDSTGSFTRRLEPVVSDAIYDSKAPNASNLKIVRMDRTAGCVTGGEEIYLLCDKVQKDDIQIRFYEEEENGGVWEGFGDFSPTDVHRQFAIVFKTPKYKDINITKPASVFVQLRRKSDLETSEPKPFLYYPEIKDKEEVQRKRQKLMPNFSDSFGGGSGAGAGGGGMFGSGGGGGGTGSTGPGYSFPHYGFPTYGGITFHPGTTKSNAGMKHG

[3] = molecular target: T1, p65 (RelA); test: as above

Binder	binding result [1]	binding result [2]	binding result [3]
B1	binds	binds	–
B2	–	no binding	no binding
